Results on two molecules are retold here after US20240360234A1 (NKARTA, published 2024).

The target in assay [1] is T1, CD27 (endogenous, on Jurkat cells) (UniProt P26842 20-260, limits assumed).
T1 construct: whole, on cells; also called the ligand for CD70
As to the kind of experiment: flow cytometry, CD70-hFc at 2 or 10 ug/ml on native Jurkat cells, anti-human Fc-APC detection. As for the experimental part:
FIGS. 27A-27F show data related to the ability of anti-CD70 CAR-expressing Jurkat cells to bind human bind CD70. […] Moving left to right are negative control, control for the antibody to human Fc, binding when 2 ug/ml of a CD70-hFc complex is incubated with the Jurkat cells and binding is detected with the human Fc-APC antibody, and binding when 10 ug/ml of a CD70-hFc complex is incubated with the Jurkat cells and binding is detected with the human Fc-APC antibody. […] Moving left to right is a control for the antibody to murine Fc, binding when 2 ug/ml of a CD70-murine Fc complex is incubated with the Jurkat cells and binding is detected with a murine Fc-APC antibody, and binding when 10 ug/ml of a CD70-murine Fc complex is incubated with the Jurkat cells and binding is detected with the murine Fc-APC antibody, and detection of Flag tag (present in the NK71/72 CAR constructs, but not native Jurkat cells). […] Moving left to right are negative control, control for the antibody to human Fc, binding when 2 ug/ml of a CD70-hFc complex is incubated with the Jurkat cells and binding is detected with the human Fc-APC antibody, and binding when 10 ug/ml of a CD70-hFc complex is incubated with the Jurkat cells and binding is detected with the human Fc-APC antibody. […]
In general terms: In flow cytometry, cells or beads pass a laser one at a time.

The target in assay [2] is T2, CD70-hFc complex (extracellular domain of human CD70 fused with the Fc region of human IgG1) (human) (UniProt P32970).
T2 sequence (looked up): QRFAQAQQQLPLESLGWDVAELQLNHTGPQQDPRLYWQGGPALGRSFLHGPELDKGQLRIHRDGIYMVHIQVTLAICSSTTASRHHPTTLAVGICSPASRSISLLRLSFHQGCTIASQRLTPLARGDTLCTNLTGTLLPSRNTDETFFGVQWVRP
As to the kind of experiment: flow cytometry, CD70-hFc at 2 ug/mL on NK71-transduced Jurkat cells (about 16% NK71 positive; the cells also carry endogenous CD27).

Assay [3] concerns the target T2, CD70-hFc complex (extracellular domain of human CD70 fused with the Fc region of human IgG1) (human). As to the kind of experiment: flow cytometry, CD70-hFc at 10 ug/mL on NK71-transduced Jurkat cells (about 16% NK71 positive; the cells also carry endogenous CD27).

T1 sequence (P26842 20-260 limits assumed): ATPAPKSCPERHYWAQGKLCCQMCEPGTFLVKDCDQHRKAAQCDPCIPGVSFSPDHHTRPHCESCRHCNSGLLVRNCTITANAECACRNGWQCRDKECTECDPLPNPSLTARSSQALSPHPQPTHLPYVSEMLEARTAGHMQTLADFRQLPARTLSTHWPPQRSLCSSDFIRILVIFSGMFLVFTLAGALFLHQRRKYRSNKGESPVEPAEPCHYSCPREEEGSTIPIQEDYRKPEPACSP

B1: CD70-hFc complex (extracellular domain of human CD70 fused with the Fc region of human IgG1) (Fc fusion, UniProt P32970 39-193, looked up)
chain: T2 sequence (looked up)
notes: range 39-193; Soluble reagent added at 2 or 10 ug/ml and detected with an anti-human Fc-APC antibody; not shown: Fc region of human IgG1, at the N-terminus of the fusion
Turning to B1, the binding result in assay [1] is listed as “binds”.

B2: NK71 anti-CD70 CAR (scFv, not shown: a dimerising Fc or GST; small tags and cut ends)
scFv: QVTLKESGPVLVKPTETLTLTCTVSGFSLSNARMGVTWIRQPPGKALEWLAHIFSNDEKSYSTSLKSRLTISKDTSKTQVVLTMTNMDPVDTATYYCARIRDYYDISSYYDYWGQGTLVSVSSGGGGSGGGGSGGGGSDIQMTQSPSAMSASVGDRVTITCRASQDISNYLAWFQQKPGKVPKRLIYAASSLQSGVPSRFSGSGSGTEFTLTISSLLPEDFATYYCLQLNSFPFTFGGGTKVEIN
As to B2, the percent of Jurkat cells binding CD70 in assay [2] is 50%; in assay [3], above 80%.
